Experimental data as given in article PMC10352329.

Key:
Experiment in all cases: ITC
[1] = biological target: H2B (1–27) unmodified peptide (Homo sapiens); conditions: domain or fragment; chains chain; fluorescently labeled with a His tag Labeling Kit (microscale thermophoresis only)
[2] = biological target: H4 (1–20) K5ac/K8ac peptide (Homo sapiens); conditions: domain or fragment
[3] = biological target: H4 (1–20) unmodified peptide (Homo sapiens); conditions: domain or fragment; chains chain; fluorescently labeled with a His tag Labeling Kit (microscale thermophoresis only)

Sequence of H2B (1–27) unmodified peptide (Homo sapiens) (main, as listed by the source): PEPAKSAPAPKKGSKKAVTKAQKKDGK

B1: human p300BRP (residues 1048–1282), wild type, Q09472 1048-1282 (protein)
chain: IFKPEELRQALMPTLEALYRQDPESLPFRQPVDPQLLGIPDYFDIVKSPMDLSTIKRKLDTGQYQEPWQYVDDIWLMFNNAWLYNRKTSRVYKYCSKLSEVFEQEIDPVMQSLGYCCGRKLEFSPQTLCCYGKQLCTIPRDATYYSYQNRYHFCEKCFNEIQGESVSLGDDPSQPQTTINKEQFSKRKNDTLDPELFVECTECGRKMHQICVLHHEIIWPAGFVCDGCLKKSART
Kd [1]: > 500 µM
Kd [2]: 240 µM
Kd [3]: > 500 µM
